Common to all, as to conditions: one partner purified
The target of experiment [1] is T1, endogenous Syt1 on the surface of live hippocampal neurons (uPAINT) (Rattus norvegicus (assumed), UniProt P21707).
T1 construct: Synaptotagmin 1 (Syt1), endogenous; also called surface-exposed Syt1; source: endogenous, live hippocampal neurons (21-22 DIV)
The experiment can be described thus: single-molecule imaging on live neurons (uPAINT); live hippocampal neurons (21-22 DIV) in high-K+ buffer with 1 nM labelled nanobody complex, HILO, 50 Hz for 320 s, 37 °C.

Experiment [2] deals with T2, endogenous Synaptotagmin 1 of wild-type mouse neurons / brain (Mus musculus, UniProt P46096).
T2 construct: Synaptotagmin 1 (Syt1), mouse, endogenous; On live neurons in the uptake experiment; in a detergent lysate in the immunoprecipitation; also called endogenous Syt1; Syt1; source: endogenous, WT mouse brain lysate (methods; the legend says mouse primary neurons); endogenous, on live WT mouse primary neurons
T2 sequence (P46096 whole entry): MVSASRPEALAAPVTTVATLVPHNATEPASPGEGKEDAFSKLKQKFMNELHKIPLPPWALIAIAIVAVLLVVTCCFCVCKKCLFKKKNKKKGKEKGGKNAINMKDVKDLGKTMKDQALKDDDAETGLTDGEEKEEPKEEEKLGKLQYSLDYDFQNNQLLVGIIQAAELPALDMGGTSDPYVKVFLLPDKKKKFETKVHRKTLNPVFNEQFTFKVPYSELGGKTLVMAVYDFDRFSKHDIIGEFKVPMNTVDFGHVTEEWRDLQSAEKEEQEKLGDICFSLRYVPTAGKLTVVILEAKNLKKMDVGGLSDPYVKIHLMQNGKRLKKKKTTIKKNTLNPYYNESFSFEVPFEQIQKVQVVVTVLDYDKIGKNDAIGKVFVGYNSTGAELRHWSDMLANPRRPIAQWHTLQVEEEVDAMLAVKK
The experiment in a line: co-IP; GFP-tagged nanobody preloaded on GFP Selector beads; lysate of WT or Syt1 KO mouse brain, 1 h at 4 °C; blot with a Syt1 cytoplasmic antibody.

The target in experiment [3] is T3, endogenous human Syt1 of human iPSC-derived neurons (Homo sapiens, UniProt P21579).
T3 construct: Synaptotagmin 1 (Syt1), human, endogenous; also called endogenous Syt1; source: endogenous, live human iPSC-derived hypothalamic-like neurons
T3 sequence (P21579 whole entry): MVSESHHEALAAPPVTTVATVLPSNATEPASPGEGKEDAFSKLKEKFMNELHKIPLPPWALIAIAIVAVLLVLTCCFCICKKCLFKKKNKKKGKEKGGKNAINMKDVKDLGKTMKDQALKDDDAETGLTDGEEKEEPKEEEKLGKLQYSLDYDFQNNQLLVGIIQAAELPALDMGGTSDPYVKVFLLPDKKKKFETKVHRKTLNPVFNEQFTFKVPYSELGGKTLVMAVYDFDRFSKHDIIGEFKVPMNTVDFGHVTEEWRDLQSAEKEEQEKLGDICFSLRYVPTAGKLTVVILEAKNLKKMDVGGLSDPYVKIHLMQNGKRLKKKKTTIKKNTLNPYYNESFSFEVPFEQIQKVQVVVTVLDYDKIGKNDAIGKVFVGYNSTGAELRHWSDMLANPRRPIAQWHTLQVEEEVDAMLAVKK
The experiment in a line: immunostaining of cells or tissue; live staining of 80-day-old human iPSC-derived hypothalamic neurons with 5.5 µM pHluorin-labeled nanobody, 20 min at 37 °C, with 30 mM KCl or 1 µM TTX, after blocking the surface pool with unlabeled nanobody; fixed and stained with anti-GFP, anti-Syt1, anti-TUBB3.

Experiment [4] addresses T4, endogenous Synaptotagmin 1 of primary hippocampal neurons (proximity labelling and PLA) (rat (endogenous in primary hippocampal …, UniProt P21707)).
T4 construct: Synaptotagmin 1 (Syt1), endogenous; spectra searched against the Rattus norvegicus proteome (UP000234681); neurons 'in most cases' from Wistar rat pups; also called Syt1; Syt1-lum; source: endogenous, live primary hippocampal neurons
The experiment in a line: proximity labelling; NbLumSyt1-APEX2 taken up by live primary neurons (30 min, with biotin-phenol), 1 mM H2O2 for 30 s; streptavidin beads, LC-MS/MS; controls: no nanobody, NbALFA-APEX2.

Here are results for four molecules from paper PMC13185310, “A versatile nanobody platform for live and super-resolution imaging of synaptic vesicle dynamics and plasticity in rodent and human neurons” (Journal of Nanobiotechnology, 2026).

T1 sequence (P21707 whole entry): as the sequence (P46096 whole entry) above, with R6H counted along it
T4 sequence (P21707 whole entry): as the sequence (P46096 whole entry) above, with R6H counted along it

B1: NbLumSyt1-HALO bound to the Halo-ligand JF549 (VHH)
VHH: EVQLVESGGGLVQTGGSLRLSCTASGSIGSISVMGWYRQVPGTQYELVAGISRGGSTWYEDSVKGRFTISRDNAKNTLYLQMNSLKPEDTGMYYCAGGDYSDRLGSWGQGTQVTVSS
notes: alpaca nanobody clone 1F12; as the nanobody of m1 (PDB 8B8I chain A); also called NbLumSyt1-HALO/JF549; NbLumSyt1-Halo/JF549; source: produced and purified via NanoTag Biotechnologies
As to B1, the binding result in experiment [1] is given as “binds”.

B2: NbLumSyt1 fused to a GFP tag (VHH)
VHH: B1 VHH
notes: alpaca nanobody clone 1F12; as the nanobody of m1 (PDB 8B8I chain A); Held on GFP Selector beads in the IP; detected with anti-GFP after uptake in neurons; also called GFP-tagged nanobody
Take B2: in experiment [2], the binding result was “binds”.

B3: NbLumSyt1-pHluorin (VHH)
VHH: B1 VHH
notes: alpaca nanobody clone 1F12; as the nanobody of m1 (PDB 8B8I chain A); In uPAINT it was precomplexed with an anti-GFP nanobody carrying Atto647N (a label); A version with a TEV site in the linker also exists; also called NbSyt1-pH; pHluorin-labeled Syt1 nanobody
Consider B3, for which the binding result in experiment [1] and in experiment [3] was “binds” in each case.

B4: NbLumSyt1-APEX2 (VHH)
VHH: B1 VHH
notes: alpaca nanobody clone 1F12; as the nanobody of m1 (PDB 8B8I chain A); also called Nb-APEX2
Regarding B4, in experiment [4], the binding result is given as “binds”.
